The source of these data is patent publication US20220251236A1 (Boehringer Ingelheim, published 2022).

In experiment [1] the target is T1, trypsin inhibitor from glycine max soybean (Glycine max (soybean)).
T1 construct: also called Tryp
As to the kind of experiment: SPR (Biacore T200), trypsin inhibitor on CM5 chip, sample at 1 µM. From the text:
To prepare the surface for the non-specific binding experiment, chicken egg white lysozyme and trypsin inhibitor from glycine max soybean were coupled manually to a series S CM5 chip with the surface density of 3000-5000 RU using the amine coupling kit according to the manufacture instructions.
In general terms: In SPR one partner is held on a chip, and binding of the other changes the refractive index at the surface.

Experiment [2] addresses T2, Human CD3 E+G HuFc-6xHis (human).
T2 construct: also called hu CD3εγ-Fc
As to the kind of experiment: SPR (ProteOn XPR36), CD3εγ-Fc amine-coupled, bispecific as analyte, equilibrium fit, Example 4A. As to the method:
(§1) The binding affinity of purified DLL3/CD3 bispecific constructs for recombinant human and cyno DLL3-ECD and Fc-fusion proteins of human and cyno CD3 εγ subunits was determined by Surface Plasmon Resonance (SPR), using a ProteOn XPR36 instrument (Bio-Rad). The running buffer and all dilutions (except where stated) were done in PBS-T-EDTA. The GLM sensor chip (Bio-Rad) was normalized and pre-conditioned as per the manufacturer's recommendations. The sensor chip was activated with equal mixture of EDC/s-NHS in the horizontal direction for 300 sec at a flow rate of 30 ul/min and immobilized with protein A/G (20 ug/ml in 10 mM acetate pH 4.5) in the horizontal direction for 300 sec at a flowrate of 30 ul/min resulting in ˜5000 RU of protein A/G on the surface. The sensor chip was deactivated with 1M ethanolamine HCl in the horizontal direction for 300 sec at a flowrate of 30 μl/min.
For binding kinetic determination to CD3, hu CD3εγ-Fc and cy CD3εγ-Fc (dissolved in pH 4.5 acetate) was immobilized directly onto the sensor surface through amine coupling for 140 sec at a flowrate of 30 μl/min vertically. The baseline was stabilized by injecting PBS-T-EDTA for 60 sec at a flowrate of 40 μl/min horizontally. The analyte (the bispecific molecule) was injected horizontally over the captured CD3εγ-Fc construct for 600 sec at a flowrate of 40 μl/min and a dissociation for 600 sec.
(§2) The inter spot (interactions with sensor surface) and blank (PBS-T-EDTA) were subtracted from the raw data.

The target of experiment [3] is T3, Cyno DLL3-His (cynomolgus monkey, UniProt Q9NYJ7 27-492 (human entry)).
T3 construct: also called cy DLL3; recombinant cyno DLL3-ECD
T3 chain: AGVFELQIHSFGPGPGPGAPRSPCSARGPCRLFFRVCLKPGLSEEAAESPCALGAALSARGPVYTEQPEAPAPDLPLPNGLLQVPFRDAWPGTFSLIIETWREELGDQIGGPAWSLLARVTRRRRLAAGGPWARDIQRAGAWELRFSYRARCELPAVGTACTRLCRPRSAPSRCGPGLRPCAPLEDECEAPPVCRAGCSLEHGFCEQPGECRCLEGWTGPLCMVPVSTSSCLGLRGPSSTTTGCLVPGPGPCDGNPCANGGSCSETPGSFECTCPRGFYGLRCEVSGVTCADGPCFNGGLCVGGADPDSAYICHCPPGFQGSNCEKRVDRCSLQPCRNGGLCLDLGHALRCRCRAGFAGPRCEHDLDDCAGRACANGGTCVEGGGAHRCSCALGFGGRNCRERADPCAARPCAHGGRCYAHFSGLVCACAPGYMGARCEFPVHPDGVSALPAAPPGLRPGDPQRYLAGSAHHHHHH
Put plainly: SPR; ratio of the KD values for human and cyno DLL3. The protocol:
as §1
(§3) For binding kinetic determination to DLL3, bispecific molecules were captured individually on the protein A/G surface vertically for 250 sec at a flowrate of 25 μl/min. The baseline was stabilized by injecting PBS-T-EDTA for 60 sec at a flowrate of 40 μl/min horizontally. The analyte (hu DLL3 or cy DLL3) was injected horizontally over the captured antibody for 600 sec at a flowrate of 40 μl/min and a dissociation for 2700 sec.
as §2

Experiment [4] concerns the target T4, Human DLL3-His (human, UniProt Q9NYJ7 27-492).
T4 construct: also called huDLL3-His; hu DLL3
T4 sequence: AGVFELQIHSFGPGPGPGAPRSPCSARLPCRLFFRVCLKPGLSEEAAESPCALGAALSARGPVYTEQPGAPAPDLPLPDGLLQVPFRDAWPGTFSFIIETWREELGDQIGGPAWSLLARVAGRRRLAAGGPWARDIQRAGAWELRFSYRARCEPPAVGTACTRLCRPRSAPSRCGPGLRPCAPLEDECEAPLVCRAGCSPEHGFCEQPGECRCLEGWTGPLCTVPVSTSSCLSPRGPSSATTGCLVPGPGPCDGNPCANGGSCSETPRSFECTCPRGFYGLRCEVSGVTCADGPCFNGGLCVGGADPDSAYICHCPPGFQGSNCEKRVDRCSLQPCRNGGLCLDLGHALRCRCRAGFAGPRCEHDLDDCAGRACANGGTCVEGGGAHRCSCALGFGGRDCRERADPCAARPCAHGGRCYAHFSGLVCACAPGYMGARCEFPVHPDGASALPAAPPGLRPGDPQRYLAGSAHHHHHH
As to the kind of experiment: SPR (ProteOn XPR36), bispecific captured on protein A/G, hu DLL3 as analyte, Example 4B. The protocol:
The binding affinity of purified DLL3/CD3 bispecific constructs for recombinant human DLL3-ECD and Fc-fusion protein of human CD3 εγ subunits was determined by Surface Plasmon Resonance (SPR), using a ProteOn XPR36 instrument (Bio-Rad).
For binding kinetic determination to DLL3, anti-DLL3/CD3 molecules were captured individually on the protein A/G surface vertically for 200 sec at a flowrate of 30 μl/min. The baseline was stabilized by injecting PBS-T-EDTA for 60 sec at a flowrate of 30 μl/min horizontally. The analyte (hu DLL3) was injected horizontally over the captured antibody for 300 sec at a flowrate of 30 μl/min and a dissociation for 1800 sec.

The target of experiment [5] is T2, Human CD3 E+G HuFc-6xHis. As to the kind of experiment: SPR (ProteOn XPR36), HuCD3E_HuCD3G-Fc amine-coupled, bispecific as analyte, Example 4B. The method in brief: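 Human CD3ε/γ-Fc fusion is amine-coupled to the chip at pH 4.5. Anti-DLL3/CD3 bispecifics are injected as analyte in PBS-T-EDTA at 30 μl/min, with 600 s association and 1800 s dissociation. Binding kinetics are measured by SPR.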

Experiment [6] deals with T4, Human DLL3-His. As to the kind of experiment: SPR (ProteOn XPR36), bispecific captured on protein A/G, DLL3 as analyte, Example 4A. As to the method: as §1, §3, §2
Experiment [7] concerns the target T3, Cyno DLL3-His. Described as above. The protocol:
as §1, §3, §2

T2 sequence (chain, as listed by the source limits assumed): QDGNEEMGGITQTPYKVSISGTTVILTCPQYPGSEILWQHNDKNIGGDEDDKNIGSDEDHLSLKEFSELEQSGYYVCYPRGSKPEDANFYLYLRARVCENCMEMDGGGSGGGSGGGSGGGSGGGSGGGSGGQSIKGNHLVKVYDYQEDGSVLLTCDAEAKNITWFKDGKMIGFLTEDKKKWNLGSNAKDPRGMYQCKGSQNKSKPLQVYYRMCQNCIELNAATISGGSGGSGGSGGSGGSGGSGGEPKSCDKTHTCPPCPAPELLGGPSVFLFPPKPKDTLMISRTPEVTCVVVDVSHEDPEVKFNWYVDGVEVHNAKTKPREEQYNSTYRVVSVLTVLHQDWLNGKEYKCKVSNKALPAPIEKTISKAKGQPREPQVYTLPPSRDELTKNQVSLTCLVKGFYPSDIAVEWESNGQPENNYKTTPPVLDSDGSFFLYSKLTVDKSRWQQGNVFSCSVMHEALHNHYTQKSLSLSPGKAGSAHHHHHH
T1 sequence (P01070 25-205): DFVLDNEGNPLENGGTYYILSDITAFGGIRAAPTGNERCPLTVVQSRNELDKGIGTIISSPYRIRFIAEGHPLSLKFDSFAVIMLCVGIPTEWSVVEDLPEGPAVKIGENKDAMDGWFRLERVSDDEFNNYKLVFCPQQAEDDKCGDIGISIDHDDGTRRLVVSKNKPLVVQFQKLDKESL

B1: DLL3#3/CD3#3 (bispecific antibody, human IgG1, kappa, lambda, L234A L235A)
chain 1: DIQMTQSPSAMSASVGDRVTITCRASQGISNYLVWFQQKPGKAPKRLIYAVSSLYSGVPSRFSGSGSGTEFTLTISSLQPEDFATYYCLQHDSYPYTFGQGTKLEIKRTVAAPSVFIFPPSDEQLKSGTASVVCLLNNFYPREAKVQWKVDNALQSGNSQESVTEQDSKDSTYSLSSTLTLSKADYEKHKVYACEVTHQGLSSPVTKSFNRGECGGGGSEGKSSGSGSESKSTEGKSSGSGSESKSTGGGGSQVQLVQSGAEVKKPGASVKVSCKASGYTFTSYYVHWVRQAPGQGLEWMVIINPGGGTTSYAQKFLGRVTMTRDTSTNTVYMELKSLRSEDTAVYYCARGEAVTGNYFYYGMDVWGQGTTVTVSSASTKGPSVFPLAPSSKSTSGGTAALGCLVKDYFPEPVTVSWNSGALTSGVHTFPAVLQSSGLYSLSSVVTVPSSSLGTQTYICNVNHKPSNTKVDKRVEPKSCDKTHTCPPCPAPEAAGGPSVFLFPPKPKDTLMISRTPEVTCVVVDVSHEDPEVKFNWYVDGVEVHNAKTKPREEQYNSTYRVVSVLTVLHQDWLNGKEYKCKVSNKALPAPIEKTISKAKGQPREPQVYTLPPSREEMTKNQVSLWCLVKGFYPSDIAVEWESNGQPENNYKTTPPVLDSDGSFFLYSKLTVDKSRWQQGNVFSCSVMHEALHNHYTQKSLSLSPG
chain 2: EAVVTQEPSLTVSPGGTVTLTCRSSTGAVTTSNYANWVQEKPGQLPRGLIGGTNKRAPWVPARFSGSLLGGKAALTLSGAQPEDEAEYFCALWYSNLWVFGGGTKLTVLGQPKAAPSVTLFPPSSEELQANKATLVCLISDFYPGAVKVAWKADGSPVNTGVETTTPSKQSNNKYAASSYLSLTPEQWKSHRSYSCQVTHEGSTVEKTVAPAECSGGGGSEGKSSGSGSESKSTEGKSSGSGSESKSTGGGGSEVQLVESGGGLVQPGGSLKLSCAASGFTFNTYAMNWVRQAPGKGLEWVARIRSKYANYATYYADSVKDRFTISRDDSKNTAYLQMNNLKTEDTAVYYCVRHGNFGNSYVSWFAYWGQGTLVTVSAASTKGPSVFPLAPSSKSTSGGTAALGCLVKDYFPEPVTVSWNSGALTSGVHTFPAVLQSSGLYSLSSVVTVPSSSLGTQTYICNVNHKPSNTKVDKRVEPKSCDKTHTCPPCPAPEAAGGPSVFLFPPKPKDTLMISRTPEVTCVVVDVSHEDPEVKFNWYVDGVEVHNAKTKPREEQYNSTYRVVSVLTVLHQDWLNGKEYKCKVSNKALPAPIEKTISKAKGQPREPQVYTLPPSREEMTKNQVSLSCAVKGFYPSDIAVEWESNGQPENNYKTTPPVLDSDGSFFLVSKLTVDKSRWQQGNVFSCSVMHEALHNRFTQKSLSLSPG
notes: Heterodimer of one DLL3 chain and one CD3 chain (scFab-Fc, knob-in-hole)
In the case of B1, the “Non-specific binding (RU)” value in experiment [1] was 28 RU. The equilibrium dissociation constant (Kd) (in general, the constant that tells how readily two partners part at equilibrium) with Human CD3 E+G HuFc-6xHis [2] is 68 nM; in the experiment with Human DLL3-His [4] it was 0.116 nM; with Human CD3 E+G HuFc-6xHis [5], 4 nM; in the experiment with Human DLL3-His [6], below 0.01 nM; with Cyno DLL3-His [7], below 0.01 nM. Besides, in the experiment with Cyno DLL3-His [3], the “Affinity gap KD hu/cyno DLL3” value stood at 1.
